Test: soluble on expression in E. coli; label from the status in PepcDB or PDB records

Sequence: MSLFLITNRKLVNREKYFNTIEEAGKYGVKNIILREKDLSTKELIKIYIKIKELVTEETNIIINSNIEATMILKEKFIHLSFKDFKRNLEEVKSLQVGVSVHSILEAIEADRLGASYILVSPIFETQCKKGVTPKGINFIKEIKEKVNCNVIALGGINEHNFKEVLGAGADDFACMSLLFMSNNIKKSLYTFKSLEGHHHHHH
- soluble on expression in E. coli: not soluble

Sequence: MGHHHHHHSHMAEISDLDRQIEQLRRCELIKESEVKALCAKAREILVEESNVQRVDSPVTVCGDIHGQFYDLKELFRVGGDVPETNYLFMGDFVDRGFYSVETFLLLLALKVRYPDRITLIRGNHESRQITQVYGFYDECLRKYGSVTVWRYCTEIFDYLSLSAIIDGKIFCVHGGLSPSIQTLDQIRTIDRKQEVPHDGPMCDLLWSDPEDTTGWGVSPRGAGYLFGSDVVAQFNAANDIDMICRAHQLVMEGYKWHFNETVLTVWSAPNYCYRCGNVAAILELDEHLQKDFIIFEAAPQETRGIPSKKPVADYFL
- soluble on expression in E. coli: not soluble

Sequence: MGSDKIHHHHHHMSQTMMLIEKSSHCVSWYDTETGALQGRLALPDFPHEFVVDQDNHYAYVGHYGVQNSGVEGTDGRSVIVIDIRKQEIVHRYDLGEHARPHGISLDAQGRLYVLSEWSGHLLVKENPRAFDQGWDHVTPVGGEKPHLFALTGDGRTAYSMNLNSGDVTVLDPYDPTRIPVSIKTGEKPEGRCLREEAGVLYTSQRISNTVAVVDTKTLQVQRIFPTPQDPCRVYYDAKRNRLVTMNHHGGSFSVFDEATGEMLHEQKTPANPLALCIDDEAAYAYIAIDCEQVQRFNLDTFEVVQTFDTGKEPDVMVILPEGYSKHWEVNA
- soluble on expression in E. coli: not soluble

Sequence: MDTMGRHVISELWGCDFDKLNDIDFIEKTFVDAALKSGAEIREVAFHKFAPQGVSGVVIISESHLTIHTFPEHGYASIDVYTCGHLDPTIAADYIAEMLGAQTRETIELPRGMRPIEVKKAQAL
- soluble on expression in E. coli: soluble

Sequence: MTSIHVQVPATTANIGAGFDCLGAALSLHNQFQFRLAGESEPFFSLELVGADVETQKLEATADNLLYRAFAKVFATLGQPVPHVNIAIDLKVPLSRGLGSSATAIVGGLVGANALAGSPLSQREIMNLAIEMEGHPDNVVPALLGGCQLSVKHQQDWVI
- soluble on expression in E. coli: not soluble

Sequence: GPLGSEQIGKLRSELEMVSGNVRVMSEMLTELVPTQAEPADLELLQELNRTCRAMQQRVLELIPQIANEQLTEELLIVNDNLNNVFLRHERFERFRTGQTTKA
- soluble on expression in E. coli: soluble

Sequence: MGSDKIHHHHHHVIRRAKPLLGTLVEIAAESLPHSGSEIPLEDKALEAAMTAAFSRVTHIGRLLSFHQQDSELNQLNRQPGTWIRVSQDSLRVLKLAKWLGKASNNLFNCTVGGEMMSRGALPAYLGMPLLLQGEWQDIEIKDNQVRLARPLILTLDGIAKGYAVDMAVSELRRAGVGGGWVNAGGDLRVFGSASLNVLCRGPKGLSQKICVSNMALASSRVSQTLSHDYPALLLPTGNVTDVNIDLESERIVSVSAPFAWRADALTKVAGYLSSDSAADKIAHLGGRLVSFE
- soluble on expression in E. coli: not soluble

Sequence: MAHHHHHHMTIRVAINGYGRIGRNTLRAFYENGKKHDLEIVAINDLGDAKTNAHLTQYDTAHGKFPGEVSVDGDYLVVNGDRIRVLANRNPAELPWGELGVDVVMECTGFFTSKEKASAHLKGGAKKVIISAPGGKDVDATIVYGVNHDVLKAEHTVISNASCTTNCLAPLVKPLNDKIGLETGLMTTIHAYTNDQVLTDVYHEDLRRARSATHSQIPTKTGAAAAVGLVLPELNGKLDGYAIRVPTINVSIVDLSFIAKRDTTAAEVNAIMKEASEGALKGILGYNEAPLVSIDFNHNPASSTFDATLTKVSGRLVKVSSWYDNEWGFSNRMLDTAIALANAK
- soluble on expression in E. coli: soluble

Sequence: MSEEGPQVKIREASKDNVDFILSNVDLAMANSLRRVMIAEIPTLAIDSVEVETNTTVLADEFIAHRLGLIPLQSMDIEQLEYSRDCFCEDHCDKCSVVLTLQAFGESESTTNVYSKDLVIVSNLMGRNIGHPIIQDKEGNGVLICKLRKGQELKLTCVAKKGIAKEHAKWGPAAAIEFEYDPWNKLKHTDYWYEQDSAKEWPQSKNCEYEDPPNEGDPFDYKAQADTFYMNVESVGSIPVDQVVVRGIDTLQKKVASILLALTQMDQDKVNFASGDNNTASNMLGSNEDVMMTGAEQDPYSNASQMGNTGSGGYDNAW
- soluble on expression in E. coli: soluble

Sequence: SLSSTQSVNSVLAPGNLRKVHHIALNVQDMQASRYFYGTILGLHELTDDEVPATLTELVASGKVANFITPDGTILDLFGEPELSPPDPNPEKTFTRAYHLAFDIDPQLFDRAVTVIGENKIAIAHGPVTRPTGRGVYFYDPDGFMIEIRCDPEAEG
- soluble on expression in E. coli: soluble

Sequence: SAEGEDVGWWRSWLQQSYQAVKERSTEALEFMKRDLTEFTQVVQHDTACTIAATASVVKEKLATEGSSGATEKVKKGLSDFLGVISDTFAPSPDKTIDCDVITLMGTPSGTAEPYDGTKARLYSLQSDPATYCNEPDGPPELFDAWLSEFCLEEKKGEISELLVGSPSIRALYTKMVPAAVSHSEFWHRYFYKVHQLEQEQARRDALKQRADQSISEEPGWEEEEEELEGIVPSPKEAKIPKETKTTTSPEDEPAPQSPCEETPVEPPAEATPSESSESISLVTQVANPAAAPEAPELPKDLSQKLFEASLEEQSLAEDEGETGPPPPPPSKPLTPAGRASGPEPRPPARVETLREEVPTDLRVFELNSDSGKSTPSNNGKKGSSTDISEDWEKDFDLDMTEEEVQMALSKVDASGELEDVEWEDWE
- soluble on expression in E. coli: not soluble

Sequence: MAHHHHHHMSILCTISGQTPEEPVVSKTGYVFEKRLIEKHILNYGICPVSGEVLTLQDLYPLKNEQVVKPRPITASSIPGLLSILQTEWDAIISEMFTLRTHVNDIRNQLTHSLYQYDAATRVIAKLLKEKNDYKEEVKKLRNQILSIKSGNDLNEFEVGLSEDLLNEMQEVAKNLLMTRKKRNIEHVSSAEQWKEVTNTNEFDVHSAAIPGVTCLSLDINELKYSYYDDHKNHSFFSGGMDGNVYYVSLEQSKVLAKLQGHLKKVTAIVAHPKYSLCISGANDKTVRIWKGDVETNEFATAHVIAKHKDQITSLALHPMENYFVSSSKDNVWILNDLETSRSIKICKDTPSPFRQLAIHPDGIMLGIGCEDSNIHIFDMKSQEYKASLSGHTSHVSYISFSENGYYLASCSKDKTVKLWDLRKAQCFQTIDVEELPRSICFDFSGKYLSLAAGNDVHVFNFEAKTKAVLVNTLSAHTDAVTQTCFGSRTAYLLSSSMDKTVKVWS
- soluble on expression in E. coli: not soluble

Sequence: MIDNLIKKEFLAHKEALEKSLEGLQEALKQSVHLLIETLENQGKILICGNGGSASDAQHFAAELTGRYKLERKGLSAISLNTDISALTAIANDYGYEEVFARQVEALGVKNDVLIGISTSGNSKNVLKAYEKAKDLEMKTLSLAGRDGGKMKPLSDMALIVPSDDTPRIQEMHILMIHILCDCIERHFAHKN
- soluble on expression in E. coli: not soluble

Sequence: ALVELKVPDIGGHENVDIIAVEVNVGDTIAVDDTLITLETDKATMDVPAEVAGVVKEVKVKVGDKISEGGLIVVVEAEGTA
- soluble on expression in E. coli: soluble

Sequence: MTFEDLHEYLDYLAKKNDLVTITEEVDPNLDLTYILSEEERMGRGRTILFKNVKGSQVPAVGNLFSTNEKLKAVLGDDPYSIGVKIADIVKPPRDSESFIGKGLEMMRELSGLRPKVSNSIPSGYSELEKVDLYRYPICKTWPDDGGPFITLPLVITKDPSTGIRNMGMYRMQVYDSETTGMHWHIHKGGSENFLKEKEKGKAMDVAVVIGSDPLTIFSAVAPLPNGIDEFMFRGLISRKRSELVKGKTVDLEYPRNFEIVLEGYIDPSETRVEGPFGDHTGYYSLEEEFPVFHVKNIIERNDRIYPTTIVGKLWHEDVVLGKAVERMFLPLIQMVLPEVVDINTMEEAVFHNMVIVSIKKRYPGHAKKVMFALWGLGQLMFSKIIVVVDDDINIHNRKELIWAMTTRIDPDRDVIIIPGTVTDSLDHAAPLFNYGSKMGIDATKKDKSEGYTRRWPDVLEMPKDVVDKVRQIMKNNRLIQLEHHHHHH
- soluble on expression in E. coli: not soluble

Sequence: PHPADPRLLIGQHVGAGPMVLASPWPRIVAPADFDTRFQGEARDLVLAHERVHLARGDAQINALVVALQCLCWFNPLVHLGAHRLRLDQEMACDEAVLARRPEARRLYAETLLDTLLAPR
- soluble on expression in E. coli: not soluble

Sequence: GVDRDYLQSEYGVLKAGQCYKVVRSFRDYRNINYERGDVMRFLGSNFVPYESGLSLFFDKNGSERQIMLCVRPEFQMEIAHHLDSYFCKLDDN
- soluble on expression in E. coli: soluble

Sequence: MGSDKIHHHHHHMSERLDENFSRAIDLMLACTGKIIISGMGKSGIIGQKIAATLSSTGTTAIFLHPAEAAHGDLGVVSEGDTVICLSKSGMTEELNFILPALRERKATIIAFTGNPRSYLAMNADVVLDTGVEQEACPYDLAPTSSTTAMLAMGDALAICLMKKKNFTDQEFALTHPKGSLGKQLTMRVGDVMATGDALPVVSEDAMLSDLILEMTSKRYGVSGVVDAEGKLTGIFTDGDLRRLVQTGESFLDKKAVEVMTPNPKTVAPDMKAKACLELLETHRITQLMVCDEKRCPVGIVHIHDLVTLGL
- soluble on expression in E. coli: not soluble

Sequence: MELLCPAGNLPALKAAIENGADAVYIGLKDDTNARHFAGLNFTEKKLQEAVSFVHQHRRKLHIAINTFAHPDGYARWQRAVDMAAQLGADALILADLAMLEYAAERYPHIERHVSVQASATNEEAINFYHRHFDVARVVLPRVLSIHQVKQLARVTPVPLEVFAFGSLCIMSEGRCYLSSYLTGESPNTIGACSPARFVRWQQTPQGLESRLNEVLIDRYQDGENAGYPTLCKGRYLVDGERYHALEEPTSLNTLELLPELMAANIASVKIEGRQRSPAYVSQVAKVWRQAIDRCKADPQNFVPQSAWMETLGSMSEGTQTTLGAYHRKWQ
- soluble on expression in E. coli: soluble

Sequence: MGSDKIHHHHHHMTEAAEAGNRGFEDYYVNIGFTPDRLVSMLSLTGLSSVHSVVAFYDDRPAGFILNGIRMIGGKQVAWNGGTAVVPELRRQGIGQKLMAATVECYEEQGVELATLEAFRINERAIALYETFGYHIVDQLCFLQHIGALETSFRSKSVGENDYRVARGTAHDVRLLSFYQHTAPWRTQWFALRGGQSILVKDALNHTIGYALYERVFDGEGSLASIVLYQCEAAPGRDDADEIVREALDALFAPHDEPCKRTTFNMPRANERVVRILQEAGFTDAHTADGIPFEQVYMVRKGKDDR
- soluble on expression in E. coli: not soluble

Sequence: MKNDVISPEFDENGRPLRRIRSFVRRQGRLTKGQEHALENYWPVMGVEFSEAPVDFATLFGREAPVTLEIGFGMGASLVAMAKARPEQNFLGIEVHSPGVGACLASANEEGVENLRVMCHDAVEVLHKMIPDNSLSMVQLFFPDPWHKARHNKRRIVQVPFAELVLSKLKLGGVFHMATDWEAYAEHMLEVMSSIDGYKNLSESNDYVPRPESRPVTKFEQRGHRLGHGVWDLMFERVK
- soluble on expression in E. coli: not soluble

Sequence: SSNAKIDQLSSDVQTLNAKVDQASNDANAARSDAQAAKDDAARANQRLDNMATKYR
- soluble on expression in E. coli: soluble

Reference: the DeepSol protein solubility set
